Experimental data: the supplement of paper PMC7125110
± gives the standard error. Variants at the floor of the assay were thinned out.

B1: glmS ribozyme (parent)
chain: AUAAAAGCGCCAGAACUACAGAAAUGUAGUUGACGAGGAGGAGGUUUAUCGAAUUUUCGGCGGAUGCCUCCAAA

Columns and labels:
Settings in all cases: with glucosamine-6-phosphate
[1] = variants of: B1; assay: self-cleavage kobs at 640 uM GlcN6P; higher = faster cleavage; RNA array
Procedure, shortened: (§1)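 The measurements used barcoded ribozyme variants on sequenced MiSeq chips, transcribed in situ by E. coli RNA polymerase and tracked at 37 °C with a hybridised Cy3 probe. Glucosamine-6-phosphate, 40 μM to 10 mM in HEPES/KCl/Mg(OAc)2 buffer, was flowed in while tiles were imaged over ~14 h. Baseline-normalised signals, also normalised to non-cleaving reference variants, gave per-tile medians that were fit to one- or two-exponential decays for kobs. kcat and KM resulted from weighted Michaelis–Menten fits across concentrations.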

[2] = variants of: B1; assay: self-cleavage kobs at 2500 uM GlcN6P; higher = faster cleavage; RNA array
Procedure, shortened: as §1

[3] = variants of: B1; assay: self-cleavage kobs at 10000 uM GlcN6P; higher = faster cleavage; RNA array
Procedure, shortened: as §1

| Variant | self-cleavage kobs at 640 uM GlcN6P [1] [s⁻¹] | self-cleavage kobs at 2500 uM GlcN6P [2] [s⁻¹] | self-cleavage kobs at 10000 uM GlcN6P [3] [s⁻¹] |
| --- | --- | --- | --- |
| U57C C67U C68A | 8.67e-05 ± 4e-05 |  |  |
| U45A U57G G62A | < 1e-05 | < 1e-05 |  |
| G43C A53U U55A U57A | < 1e-05 |  |  |
| G44A U45C C61A | < 1e-05 | < 1e-05 |  |
| G40A U65G G66U | 0.00012 ± 2.6e-05 | 0.000547 ± 0.00026 |  |
| G38U A42G A53U | < 1e-05 |  |  |
| G38U C50U C58A U69A | 0.000295 ± 9.9e-05 | 0.000466 ± 0.00018 |  |
| A42U G59C G60A | < 1e-05 |  |  |
| G43A G44U C68G | < 1e-05 | < 1e-05 |  |
| G41C U47A U56C | < 1e-05 |  |  |
| G37A A42U G44C G59A | < 1e-05 | < 1e-05 |  |
| G38C A42U G63A C68U | < 1e-05 |  |  |
| G41U C50U G63U | < 1e-05 | < 1e-05 | < 1e-05 |
| U54C U55G C58A | 7.47e-05 ± 1.6e-05 | 0.000102 ± 1.2e-05 |  |
| A53C G60A G66A | < 1e-05 |  |  |
| A48U G59C C68G | < 1e-05 |  |  |
| A42U C61G G66A | < 1e-05 |  |  |
| G41C G59U C70G | 3.61e-05 ± 1.7e-05 | 0.000118 ± 3.1e-05 | 0.000122 ± 2.1e-05 |
| G44U U54G C68A | < 1e-05 |  |  |
| U55A G60C U65A | < 1e-05 | < 1e-05 |  |
| G40U U45C C67G | 4.79e-05 ± 1.9e-05 | 7.13e-05 ± 1.7e-05 |  |
| G41C G60U U65C C67G C68A | < 1e-05 |  |  |

| Variant | self-cleavage kobs at 640 uM GlcN6P [1] [s⁻¹] | self-cleavage kobs at 2500 uM GlcN6P [2] [s⁻¹] | self-cleavage kobs at 10000 uM GlcN6P [3] [s⁻¹] |
| --- | --- | --- | --- |
| A42C G51A U69A | < 1e-05 |  |  |
| G38U U46A G59A C70A | < 1e-05 | < 1e-05 |  |
| G44A A53U C67A | 0.00108 ± 0.00027 | 0.00591 ± 0.0013 |  |
| C50U U57A C68A U69G C71G | 8.81e-05 ± 3.4e-05 |  |  |
| A53G G66C C71G | 8.43e-05 ± 2.2e-05 |  |  |
| G40C A42C A48C A52U | < 1e-05 |  | < 1e-05 |
| G43A A48G U56A C68G | < 1e-05 |  |  |
| U46A C70G | 0.000146 ± 4.1e-05 | 0.00037 ± 0.00011 | 0.000156 ± 3.1e-05 |
| U47A A52U A64G | 7.01e-05 ± 1.7e-05 | 0.000177 ± 5.4e-05 |  |
| G41U A53U U56G G66A | 5.34e-05 ± 1.9e-05 | 0.000221 ± 4.9e-05 |  |
| G44U U49C G62U | < 1e-05 | < 1e-05 |  |
| G43A C50A | < 1e-05 |  |  |
| A42G A52U | 5.23e-05 ± 1.2e-05 | 0.000479 ± 9.3e-05 | 0.000467 ± 9.8e-05 |
| A48G C58A C67G C70U | 0.000135 ± 4.4e-05 | 6.91e-05 ± 2.5e-05 | 4.32e-05 ± 1.3e-05 |
| G40C G44U U47C U55A | < 1e-05 | < 1e-05 |  |
| U47A G51A C71G | 0.0001 ± 3.9e-05 |  |  |
| A48G A53C C58U G59U | < 1e-05 |  |  |
| A48C U56G G60A C61G | < 1e-05 |  |  |
| C61U C68G | 4.29e-05 ± 1.5e-05 |  |  |
| G59A C61A | < 1e-05 | < 1e-05 |  |
| G40U U65G G66A | 9.33e-05 ± 1.9e-05 | 0.000269 ± 8.2e-05 |  |
| G38A A42C A64G | < 1e-05 | < 1e-05 |  |

| Variant | self-cleavage kobs at 640 uM GlcN6P [1] [s⁻¹] | self-cleavage kobs at 2500 uM GlcN6P [2] [s⁻¹] | self-cleavage kobs at 10000 uM GlcN6P [3] [s⁻¹] |
| --- | --- | --- | --- |
| C58A G62C C70G | 5.64e-05 ± 2.6e-05 |  |  |
| G41C G44A C70G | 0.00128 ± 0.00037 | 0.00311 ± 0.00077 |  |
| A39G G62U C70U | < 1e-05 | < 1e-05 |  |
| U46A C58A C61U C71G | < 1e-05 | < 1e-05 |  |
| G60U C67G C68U C70G | < 1e-05 |  |  |
| G40A G44U | < 1e-05 |  |  |
| G38U U47G C68U | 0.000119 ± 4e-05 |  |  |
| A6C A12U C50G G51C U54A |  | < 1e-05 |  |
| A6C C10G A36G |  | < 1e-05 |  |
| U46C A48U C50G G51U | < 1e-05 | < 1e-05 | < 1e-05 |
| G43U C50G C70G | < 1e-05 |  |  |
| A42U G43A G51A C68U | < 1e-05 |  |  |
| A39U A48G G60C | < 1e-05 | < 1e-05 |  |
| G44C C50G G62U | < 1e-05 |  |  |
| A6C C8U U45G U65C C67A |  | < 1e-05 |  |
| G60U G66A | < 1e-05 | < 1e-05 |  |
| A6C C11U C68U |  | < 1e-05 |  |
| G40C G43C C70A | < 1e-05 | < 1e-05 |  |
| G41U A52C U65A | < 1e-05 |  |  |
| U45C C71G | 8.57e-05 ± 2.5e-05 | 5.59e-05 ± 2.2e-05 | 0.000305 ± 6.9e-05 |
| A42C G60C C70U | < 1e-05 | < 1e-05 | < 1e-05 |
